Measured values taken from paper PMC12018189, “ATP synthesis of Enterococcus hirae V-ATPase driven by sodium motive force” (The Journal of Biological Chemistry, 2025).

What was measured:
[1] = substrate: Nc1ncnc2c1ncn2[C@@H]1O[C@H](COP(=O)(O)OP(=O)(O)O)[C@@H](O)[C@H]1O; assay: luciferin/luciferase luminescence assay of ATP synthesis, proteoliposomes; type: biochemical, Enterococcus hirae; conditions: ATP synthesis direction, 74 mM Pi, 5 mM MgCl2, pH 7.0, 25 °C, smf 269.3 mV (Δψ 154.7 mV, ΔpNa 114.6 mV)
Source text: luciferin/luciferase luminescence assay of ATP synthesis, proteoliposomes on EhVoV1 (Enterococcus hirae V-ATPase)

[2] = substrate: O=P(O)(O)O; assay: purified protein; conditions: ATP synthesis direction, 0.5 mM ADP, 5 mM MgCl2, pH 7.0, 25 °C, smf 269.3 mV (Δψ 154.7 mV, ΔpNa 114.6 mV)

B1: EhVoV1 (Enterococcus hirae V-ATPase) (Enterococcus hirae ATCC 9790) (protein)
chain 1: MQIGKIIKVSGPLVMAENMSEASIQDMCLVGDLGVIGEIIEMRQDVASIQVYEETSGIGPGEPVRSTGEALSVELGPGIISQMFDGIQRPLDTFMEVTQSNFLGRGVQLPALDHEKQWWFEATIEEGTEVSAGDIIGYVDETKIIQHKIMVPNGIKGTVQKIESGSFTIDDPICVIETEQGLKELTMMQKWPVRRGRPIKQKLNPDVPMITGQRVIDTFFPVTKGGAAAVPGPFGAGKTVVQHQIAKWSDVDLVVYVGCGERGNEMTDVVNEFPELIDPNTGESLMERTVLIANTSNMPVAAREASIYTGITIAEYFRDMGYDVAIMADSTSRWAEALREMSGRLEEMPGDEGYPAYLGSRLAEYYERSGRVIALGSDQREGSITAISAVSPSGGDISEPVTQNTLRVVKVFWGLDSSLAQKRHFPSINWIQSYSLYSTEVGRYMDQILQQDWSDMVTEGMRILQEEEQLNEIVRLVGIDSLSDNDRLTLEVAKSIREDYLQQNAFDDVDTFTSREKQFNMLKVILTFGKEARKALSLGAYFNEIMEGTVAVRERISRSKYIPEEELAKISSINEEIKETIQLIVSEGGMTDD
chain 2: MIKEYRTIKEVVGPLMAVEKVSGVKYEELIEVRMQNGEIRRGQVLEVQEDKAMVQIFEGTSGINLKNSSVRFLGHPLQLGVSEDMIGRVFDGLGRPKDNGPEILPEKYLDINGEVINPIARDYPDEFIQTGISAIDHLNTLVRGQKLPVFSGSGLPHKELAAQIARQATVLDSSDDFAVVFAAIGITFEEAEFFMEDFRQTGAIDRSVMFMNLANDPAIERIATPRMALTAAEYLAYEKGMHVLVIMTDMTNYAEALREISAARREVPGRRGYPGYLYTNLATLFERAGRIRGLKGSVTQIPILTMPEDDKTHPIPDLTGYITEGQIILTRELYKSGIQPPIDVLPSLSRLKDKGTGAGKTREDHAATMNQLFAAYAQGKQAKELAVVLGESALSDIDKIYAKFAERFENEYVNQGFYTNRTITETLDLGWELLAMLPRTELKRIKDDLLDKYLPEGK
notes: whole VoV1 complex, His tags on c-subunits, expressed in E. coli C41(DE3), DDM-solubilised, Ni-NTA and size exclusion, reconstituted into soybean phosphatidylcholine liposomes; with V-type sodium ATPase subunit D; V-type sodium ATPase subunit G; V-type sodium ATPase subunit E; V-type sodium ATPase subunit F; V-type sodium ATPase subunit C; V-type sodium ATPase subunit I; V-type sodium ATPase …
Q: For B1, which Km [1] is on record?
A: The Km was 21 ± 2 µM.

Q: And the kcat [1]?
A: The kcat was 4.7 s⁻¹.

Q: And the Km [2]?
A: The Km was 2100 ± 200 µM.

Q: And the kcat [2]?
A: Its kcat is 4.7 s⁻¹.
